Experiment: soluble on expression in E. coli; label from the status in PepcDB or PDB records

Sequence | soluble on expression in E. coli
MSLTQAQGAQQYVNINPPMPSDTPGKIEVLEFFAYTCPHCAAIEPMVEDWAKTAPQDVVLKQVPIAFNAGMKPLQQLYYTLQALERPDLHPKVFTAIHTERKRLFDKKAMGEWAASQGVDRAKFDSVFDSFSVQTQVQRASQLAEAAHIDGTPAFAVGGRYMTSPVLAGNDYAGALKVVDQLIVQSREGHHHHHH | soluble
MSLTTITLRSAELFDVYLTFRQPMQTAISILSKRRTTILRLTDQEGRIGYGEGVAFETPWYTAETQDSLRALSPLLYRLLAAAPLSSPAAVAARFQPIKGNQMAKAMFDGAVHELFAQAEQTSLAAYLGGDENRSIPCGKALGRSSAEQTVEAVGQALNDGFERIKLKLAPTDTAVLEQVRKSFPGAPLMFDANGSFQVADLPLLQEWDTFSMLMMEQPFPADDWLSHQHAASLLKTPLCLDESIQTTQDALLMRTLQAGQIINIKPARLGGLTAALDVRSISPSYWLGGMFESGIGRRQTLAFATLPGLAYPIDMSGTDQYFIEDLLEQDYIVENGSIRYAEHSVSQERLERLAVSTKKLEGHHHHHH | soluble
MGSDKIHHHHHHMQRFKKWFLSIIKNFKQHEKIKIDLNNTKIDLNNTKIDLNNTKIDLNNTKIDLNNTKIDLNNTKIDLNNTKIDLNNTKIDLNNTKIELSQLKKEHYKVLDFHLRKITPQAFLEIVEIHLAESCNLNCFGCNHFSQIAEKEFPDIEIFKKDMQRLSEISKGIVGTFRLMGGEPLLNPNCIQFFDITRYFFPKSAIWLVTNGILLDKQNEDFWNSCQRNKMQIRPTKYPIKINWDLIKDKCDQYDIPLIFFNNGELEKTSWKFSLDPSGNCDNYHSFTNCSMANHCVQFKDGKLFTCTFPAHVQHFNKKYGNHFEVCEFDFIDIYKAKDYQEILFFLSKPIPFCRYCKVSQWAEIGKWRSSNKTKHEYLI | not soluble
MKIFLDSAITTDIQDRLATEIIDGVTTNPTLIKKSNEDPDVVYKELYDMRVKDISIEVRGDTAQELAANGILYGRKYGEVATIKLPCTVEGIKACKKLSILGHKTNMTLVFSVSQAILCAKAGATYVSPFVGRLDQIGEDGIQLIRDISRVYCVSGVKTQILAASIRSPKQAEDAYLAGADICTLPVKVFDQMFKHTLTDDGLKQFAIDFGINF | not soluble
MKAAHIIDEARLGIMLNDLRLPTIKTLWPQFAEQADKEGWPAARFLSAIAEHELAERDRRRVERHLAEAHLPPGKTLDSFAFDAVPMVSKAQVMAMTAGDSWLAKGANILLFGPPGGGKSHLAAAIGLALIENGWRVLFTRTTDLVQKLQVARRELQLESAIAKLDKFDLLILDLEHHHHHH | not soluble
MAHHHHHHMRNVVQKYLCRKNNFPGFCSKRNVCTLSQKKNLSAYKIYTDGLLHSEFSTELKTTNEVNRLPIFRVLDTEGNLLDGHNAPFEEEEIVKLYKQMVEFSIWDEIFYGIQRQGRISFYIVNDGEEGIQFGLGKVLTPDDHLYCQYRETGILLSRGFDYADIINQLFGNKYDEGKGRQMCICYTSKKLNIHTITTPLASQLSHAAGCGYALKLKNEKAVAATFCGDGSSSEGDFYAALNFAAVRESQTMFICKNNLYAISTSIKDQYRGDGVAPRALALGIESVRVDGNDLFATYLAAKKMREICTEESKPVFMEFMAYRYGHHSTSDDSSLYRPKEENDAWKKEGVHPISRLFLYLKNKKLYTDKDDELHRKAIKEKVLKELKKHESIKRYNIVGGLFENVYHEEDWNLKEQRESFEQFFKQHKGCYDTSKFEG | not soluble
MSTPSHLNAQPLVWGHGPRTFEVFLEPTCPYSVRAFNKLDDLLDEVGADNVTIKIRLQSQPWHLFSGVIVRCILAASTLPHGREQAHKVMQAVADHREEFEFTDHCSGPNMNATPQQIIERIERYSHVLLGAAFARPELQDVIKWHSKYARQNGIHVSPTFMVNGLVQPDLGSGDDVSVWAARIMA | not soluble
MGSDKIHHHHHHMPIDEWLVLNRIGIFENPSLRRYVSPFPPPELMGITSGLQSETGFAAHGADIYAALALASTIPITEYRHILDFGCGCGRLARMLKGHPHKISGCDIDLRHVKWIGQSLDFMNVKLSSVRPPIPFADDEMDAVISVSIFTHLTENSQDDFLAELFRVTRPGGTLFLTVHGAQALKRACHEQPIRHMLDMDEGRFRKAQQAFNQNKHGFVLQFGHLTTKPEKAFYTPRAIFRRIRDSFSRKTINMPFEYGIAFHPESYIREHWSKWFDILDYRHGAIHQFQDIVVLSPKK | not soluble
KFLHEISLVLQTSVDLDEVLSVVMTAITAGKGFGMNRAFLLLTDKERKHLRGYLGVGPRNYGEAWFIWDEISRDDFTLKEMAKNFYQTKFTSEKQKFHDILENLTIPLSEHDHILVRALREKKPLLVENAFHNPDCDYSLTQTLGVDTFLITPLVSRNRRIGVIISDNCVTHKPITPQDVQSLETFAFPVAFAIERASLYERLQEE | not soluble
NPVENYIDEVLNEVLVVPNINSSNPTTSNSAPALDAAETGHTSSVQPEDVIETRYVQTSQTRDEMSLESFLGRSGCIHESKLEVTLANYNKENFTVWAINLQEMAQIRRKFELFTYTRFDSEITLVPCISALSQDIGHITMQYMYVPPGAPVPNSRDDYAWQSGTNASVFWQHGQAYPRFSLPFLSVASAYYMFYDGYDEQDQNYGTANTNNMGSLCSRIVTEKHIHKVHIMTRIYHKAKHVKAWCPRPPRALEYTRAHRTNFKIEDRSIQTAIVTRPIITTAGPSDMY | soluble
AEEHEHHHHDEEHAHHHHHEGSEVDEYGISTFVYYRRPAFDIHKFDRFVSTQWSRNIIRAKGVCYFSNNRDMSFLFEQAGVQKKLKEAGLWYATAPEEELIEVIRQEPGLLRDWDDKYGDRMQKIVFIGRHLDKEELIRELDECLE | not soluble
MGSDKIHHHHHHAQETIPDVEVSTMDMWVKETRSVSEYLNMPVLHFKDEQVYSETLRQLKNMTENERFTYFQQLGFEGAYILWEQADRELDKIFDMESDDSHLIQEMINTYKDKYSDIFSFNTVDLFDVTPYFTFTDNDLSLLGNIKGYVVIGNSLRGPKYDYPTYDLDEVVSATRAAEPTPIEPGFKGFKDASLTIKNGKYKSTMTIGRIVNGNSFAVEFKTKKKQLFWKKSVKAGYSAMLTMKSSKFNYKNTVFCPYGKEVSILNLPIERVGNVFDAVVENFKSSRGDAKGNQSFHNIRVI | not soluble
QPKPEEKLTNNIILKKLQIALNLKADEVLDLLKLVNFRLSKHELSAFFRKPDHKHYRVCKDQVLRNFLQAVQQNLRG | not soluble
MSLEKHNEHKTLNHKSSKEKDQITNRLKRIEGQVRGIQNMVENDRYCVDILVQISAVQAAMKNVALHLLEDHAHHCVADAIKSGDGEQAISELLDVFKKFTKSEGHHHHHH | soluble
MGSDKIHHHHHHMTTGKLSHAHLCGWLRFKHLTLLTTLAESRNMHATARVMHLSQPAASKMLRDLEVYFGFALFERLPRAMQPTELGEQVIRHAWILLNDMERLVDDINDLREGGYGQLLIGAIAAAAPEILPAAIARLKQARPRLSVSLQEQTSDRLLLELEHKRLDLVIGRLTHVSQHNLFDFEPLLDEPLRVVVRRDHPLTRRGEAPSLDELSHWPWILHPLSSPMRGVFESALAEEGIATPANVVETTSIQATLQLLQSSDMLAVLPRSVMRRPLAGGQYVVLERVIGKPLDYYGIITRRQEPLSPAVEELVVHLRRLAAEADGR | not soluble
MGSDKIHHHHHHMNQDRNKLLSKIAYLYYIENLNQSQIAAKLGIYRTSISRMLTEARNVGIVKIEIENFDTNMFKLENYVKEKYSLESLEIIPNEFDDTPTILSERISQVAAGVLRNLIDDNMKIGFSWGKSLSNLVDLIHSKSVRNVHFYPLAGGPSHIHAKYHVNTLIYEMSRKFHGECTFMNATIVQENKLLADGILQSRYFENLKNSWKDLDIAVVGIGDFSNKGKHQWLDMLTEDDFKELTKVKTVGEICCRFFDSKGKEVYENLQERTIAISLEDLKNIPQSLAVAYGDTKVSSILSVLRANLVNHLITDKNTILKVLEEDGDLTFREILGE | not soluble
MANGTVLHFRFNVKQIRAKIVRKSYRFFPNDTAGHIRNMHDTMNKIFENSPPAFSYKPIETLNKCIAKVKSDVCHSTGGICKAAMDNVTNWVYNTTEGLFTTGTRLIV | not soluble
MGSDKIHHHHHHERNKTLYWGGALWSPPSNWNPFTPWNAVAGTIGLVYEPLFLYDPLNDKFEPWLAEKGEWVSNNEYVLTLRKGLRWQDGVPLTADDVVFTFEIAKKYTGISYSPVWNWLGRIERVDERTLKFVFSDPRYQEWKQMLINTPIVPKHIWENKTEEEVLQAANENPVGSGPYYVESWADDRCVFKKNGNWWGIRELGYDPKPERIVELRVLSNNVAVGMLMKGELDWSNFFLPGVPVLKKAYGIVTWYENAPYMLPANTAGIYINVNKYPLSIPEFRRAMAYAINPEKIVTRAYENMVTAANPAGILPLPGYMKYYPKEVVDKYGFKYDPEMAKKILDELGFKDVNKDGFREDPNGKPFKLTIECPYGWTDWMVSIQSIAEDLVKVGINVEPKYPDYSKYADDLYGGKFDLILNNFTTGVSATIWSYFNGVFYPDAVESEYSYSGNFGKYANPEVETLLDELNRSNDDAKIKEVVAKLSEILLKDLPFIPLWYNGAWFQASEAVWTNWPTEKNPYAVPIGWNGWWQLTGIKTLFGIEAK | soluble
SAGINYVQNYNGNLGDFTYDESAGTFSMYWEDGVSSDFVVGLGWTTGSSNAITYSAEYSASGSASYLAVYGWVNYPQAEYYIVEDYGDYNPCSSATSLGTVYSDGSTYQVCTDTRTNEPSITGTSTFTQYFSVRESTRTSGTVTVANHFNFWAHHGFGNSDFNYQVVAVEAWSGAGSASVTISS | soluble
MGSDKIHHHHHHMPMRKEQQSRPDLRVLKSLMVCATIAASLILHSPSLMAAEEATGATSTAPSACSINPSEKLKNLFTEVKQYLGIRYRFGGDTPSGFDCSGFVRFMFNKEFNVNLPRSSREMATIGTRIDRNELRPGDLVFFKNAEDRINHVGIFVGNDTFVHSSLSKGITRDTLNESYYSKRFATGVRILDIQGNRIPDDFNNLFDESNNGNSPS | not soluble
MGSDKIHHHHHHMNAPANFDSLEVGFDVPALPGMDEADIQTPCLVLDLDALERNIKKMGDYARAHGMRHRVHGKMHKSVDVAKLQERLGGAIGVCCQKVSEAEVFARGGIKDVLVSNQVRDPAKIDRLARLPKLGARTIVCVDDPANVADLSAAAQKHDTEIECFVEIDCGAGRCGVTTTEDVVEIAQAIDAAPGLKFTGIQAYQGAMQHLDSYEARKEKLDVAIAQVRDAVEGLKAADLAPELVSGGGTGSYYFESNSGVYNELQCGSYAFMDADYGRILDQDGKRIDQGEWENAFFILTQVMSHAKADKAICDAGLKAQSVDSGLPFIFGRTDVEYVKCSDEHGVIADPDGVLKVGEKLKLVPGHCDPTANVHDWYVGVRNGKVETLWPVSARGKAY | not soluble
MLGKDYMLAIILVNCDDDLWGDHSLEVEAGLPPGWRKIHDAAGTYYWHVPSGSTQWQRPTWELGDAEDPGTGTEGIWGLRPPKGRSFSSLESSLDRSNSLSWYGGESYIQSMEPGAKCFAVRSLGWVEVPEEDLAPGKSSIAVNNCIQQLAQTRSRSQPPDGAWGEGQNMLMILKKDAMSLVNPLDHSLIHCQPLVHIRVWGVGSSKGRDRDFAFVASDKDSCMLKCHVFCCDVPAKAIASALHGLCAQILSERVEVSGDASCCSPDPISPEDLPRQVELLDAVSQAAQKYEALYMGTLPVTKAMGMDVLNEAIGTLTARGDRNAWVPTMLSVSDSLMTAHPIQAEASTEEEPLWQCPVRLVTFIGVGRDPHTFGLIADLGRQSFQCAAFWCQPHAGGLSEAVQAACMVQYQKCLVASAARGKAWGAQARARLRLKRTSSMDSPGGPLPLPLLKGGVGGAGATPRKRGVFSFLDAFRLKPSLLHMP | soluble
